This passage reports viral titer of IBDV in DF-1 cells pretreated with 5 uM of the HSC70 inhibitor VER155008, 24-72 h after infection (untreated control 3.15-7.23), whole IBDV virus (log10TCID50/mL) and VP2/GAPDH by western blot in DF-1 cells pretreated with anti-HSC70 antibody results from article PMC7201719.

Assay [1] addresses Heat shock cognate 71 kDa protein (chicken (endogenous in DF-1)) (UniProt O73885).
Assay [2] shares this target. The source holds these as a separate data set.

Sequence of UniProt O73885 (O73885 whole entry): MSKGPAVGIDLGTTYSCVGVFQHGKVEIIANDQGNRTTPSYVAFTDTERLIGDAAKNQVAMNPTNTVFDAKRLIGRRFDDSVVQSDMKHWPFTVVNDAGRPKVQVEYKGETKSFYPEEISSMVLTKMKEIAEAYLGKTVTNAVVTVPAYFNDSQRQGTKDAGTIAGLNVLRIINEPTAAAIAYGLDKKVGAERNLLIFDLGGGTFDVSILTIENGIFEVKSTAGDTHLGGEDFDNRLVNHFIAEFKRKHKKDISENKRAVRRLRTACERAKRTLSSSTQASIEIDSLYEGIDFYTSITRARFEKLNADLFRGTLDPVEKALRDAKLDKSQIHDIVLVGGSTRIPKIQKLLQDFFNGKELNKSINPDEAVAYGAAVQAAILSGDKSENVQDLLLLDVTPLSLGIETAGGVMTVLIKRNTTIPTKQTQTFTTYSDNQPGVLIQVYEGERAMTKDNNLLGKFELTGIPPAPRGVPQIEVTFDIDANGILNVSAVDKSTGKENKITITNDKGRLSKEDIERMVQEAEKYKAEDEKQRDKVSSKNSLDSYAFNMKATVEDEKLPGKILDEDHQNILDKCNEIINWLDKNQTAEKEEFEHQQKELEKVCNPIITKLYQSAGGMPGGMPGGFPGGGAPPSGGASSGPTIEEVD

Regarding IBDV VP2 protein (natural protein), the viral titer of IBDV in DF-1 cells pretreated with 5 uM of the HSC70 inhibitor VER155008, 24-72 h after infection (untreated control 3.15-7.23), whole IBDV virus (log10TCID50/mL) in assay [1] was 0. Further, in assay [2], the VP2/GAPDH by western blot in DF-1 cells pretreated with anti-HSC70 antibody at 25, 12.5 and 6.25 ug/mL and infected with IBDV (normal IgG 3.329, no antibody 3.345) came out at 1.43 VP2/GAPDH.
